Experimental data from the Human Domainome abundance scans (Beltran et al. 2025).
± gives the uncertainty stated by the source.

B1: Peripheral plasma membrane protein CASK, residues 488 to 569; numbered along this chain, O14936 (parent)
chain: VRLVQFQKNTDEPMGITLKMNELNHCIVARIMHGGMIHRQGTLHVGDEIREINGISVANQTVEQLQKMLREMRGSITFKIVP

Variants of: B1
Assay: abundance fitness (aPCA) (normalised: wild type 0, dead -1); higher = more abundant; growth selection in yeast, the domain comes from the species named
Settings: Homo sapiens

Variant | abundance fitness
VRLVQFQKNTDEPMGITLKMFELNHCIVARIMHGGMIHRQGTLHVGDEIREINGISVANQTVEQLQKMLREMRGSITFKIVP [N21F] | -0.415 ± 0.05
VRLVQFQKNTDEPMGITLKMQELNHCIVARIMHGGMIHRQGTLHVGDEIREINGISVANQTVEQLQKMLREMRGSITFKIVP [N21Q] | -0.226 ± 0.034
VRLVQFQKNTDEPMGITLKMMELNHCIVARIMHGGMIHRQGTLHVGDEIREINGISVANQTVEQLQKMLREMRGSITFKIVP [N21M] | -0.258 ± 0.033
VRLVQFQKNTDEPMGITLKMIELNHCIVARIMHGGMIHRQGTLHVGDEIREINGISVANQTVEQLQKMLREMRGSITFKIVP [N21I] | -0.201 ± 0.041
VRLVQFQKNTDEPMGITLKMLELNHCIVARIMHGGMIHRQGTLHVGDEIREINGISVANQTVEQLQKMLREMRGSITFKIVP [N21L] | -0.228 ± 0.025
VRLVQFQKNTDEPMGITLKMCELNHCIVARIMHGGMIHRQGTLHVGDEIREINGISVANQTVEQLQKMLREMRGSITFKIVP [N21C] | -0.201 ± 0.042
VRLVQFQKNTDEPMGITLKMWELNHCIVARIMHGGMIHRQGTLHVGDEIREINGISVANQTVEQLQKMLREMRGSITFKIVP [N21W] | -0.6 ± 0.044
VRLVQFQKNTDEPMGITLKMVELNHCIVARIMHGGMIHRQGTLHVGDEIREINGISVANQTVEQLQKMLREMRGSITFKIVP [N21V] | -0.145 ± 0.028
VRLVQFQKNTDEPMGITLKMEELNHCIVARIMHGGMIHRQGTLHVGDEIREINGISVANQTVEQLQKMLREMRGSITFKIVP [N21E] | -0.136 ± 0.032
VRLVQFQKNTDEPMGITLKMHELNHCIVARIMHGGMIHRQGTLHVGDEIREINGISVANQTVEQLQKMLREMRGSITFKIVP [N21H] | -0.25 ± 0.038
VRLVQFQKNTDEPMGITLKMGELNHCIVARIMHGGMIHRQGTLHVGDEIREINGISVANQTVEQLQKMLREMRGSITFKIVP [N21G] | -0.186 ± 0.026
VRLVQFQKNTDEPMGITLKMYELNHCIVARIMHGGMIHRQGTLHVGDEIREINGISVANQTVEQLQKMLREMRGSITFKIVP [N21Y] | -0.282 ± 0.041
VRLVQFQKNTDEPMGITLKMKELNHCIVARIMHGGMIHRQGTLHVGDEIREINGISVANQTVEQLQKMLREMRGSITFKIVP [N21K] | -0.186 ± 0.031
VRLVQFQKNTDEPMGITLKMPELNHCIVARIMHGGMIHRQGTLHVGDEIREINGISVANQTVEQLQKMLREMRGSITFKIVP [N21P] | -0.33 ± 0.031
VRLVQFQKNTDEPMGITLKMTELNHCIVARIMHGGMIHRQGTLHVGDEIREINGISVANQTVEQLQKMLREMRGSITFKIVP [N21T] | -0.041 ± 0.027
VRLVQFQKNTDEPMGITLKMRELNHCIVARIMHGGMIHRQGTLHVGDEIREINGISVANQTVEQLQKMLREMRGSITFKIVP [N21R] | -0.268 ± 0.025
VRLVQFQKNTDEPMGITLKMSELNHCIVARIMHGGMIHRQGTLHVGDEIREINGISVANQTVEQLQKMLREMRGSITFKIVP [N21S] | -0.045 ± 0.024
VRLVQFQKNTDEPMGITLKMNRLNHCIVARIMHGGMIHRQGTLHVGDEIREINGISVANQTVEQLQKMLREMRGSITFKIVP [E22R] | 0.001 ± 0.025
VRLVQFQKNTDEPMGITLKMNQLNHCIVARIMHGGMIHRQGTLHVGDEIREINGISVANQTVEQLQKMLREMRGSITFKIVP [E22Q] | 0.008 ± 0.039
VRLVQFQKNTDEPMGITLKMNHLNHCIVARIMHGGMIHRQGTLHVGDEIREINGISVANQTVEQLQKMLREMRGSITFKIVP [E22H] | -0.037 ± 0.05
VRLVQFQKNTDEPMGITLKMNYLNHCIVARIMHGGMIHRQGTLHVGDEIREINGISVANQTVEQLQKMLREMRGSITFKIVP [E22Y] | 0.028 ± 0.066
VRLVQFQKNTDEPMGITLKMNILNHCIVARIMHGGMIHRQGTLHVGDEIREINGISVANQTVEQLQKMLREMRGSITFKIVP [E22I] | -0.185 ± 0.067
VRLVQFQKNTDEPMGITLKMNVLNHCIVARIMHGGMIHRQGTLHVGDEIREINGISVANQTVEQLQKMLREMRGSITFKIVP [E22V] | -0.079 ± 0.027

Variant | abundance fitness
VRLVQFQKNTDEPMGITLKMNFLNHCIVARIMHGGMIHRQGTLHVGDEIREINGISVANQTVEQLQKMLREMRGSITFKIVP [E22F] | -0.277 ± 0.074
VRLVQFQKNTDEPMGITLKMNGLNHCIVARIMHGGMIHRQGTLHVGDEIREINGISVANQTVEQLQKMLREMRGSITFKIVP [E22G] | 0.022 ± 0.023
VRLVQFQKNTDEPMGITLKMNKLNHCIVARIMHGGMIHRQGTLHVGDEIREINGISVANQTVEQLQKMLREMRGSITFKIVP [E22K] | -0.004 ± 0.042
VRLVQFQKNTDEPMGITLKMNSLNHCIVARIMHGGMIHRQGTLHVGDEIREINGISVANQTVEQLQKMLREMRGSITFKIVP [E22S] | -0.022 ± 0.031
VRLVQFQKNTDEPMGITLKMNPLNHCIVARIMHGGMIHRQGTLHVGDEIREINGISVANQTVEQLQKMLREMRGSITFKIVP [E22P] | -0.03 ± 0.04
VRLVQFQKNTDEPMGITLKMNMLNHCIVARIMHGGMIHRQGTLHVGDEIREINGISVANQTVEQLQKMLREMRGSITFKIVP [E22M] | -0.078 ± 0.041
VRLVQFQKNTDEPMGITLKMNCLNHCIVARIMHGGMIHRQGTLHVGDEIREINGISVANQTVEQLQKMLREMRGSITFKIVP [E22C] | -0.089 ± 0.045
VRLVQFQKNTDEPMGITLKMNWLNHCIVARIMHGGMIHRQGTLHVGDEIREINGISVANQTVEQLQKMLREMRGSITFKIVP [E22W] | -0.138 ± 0.033
VRLVQFQKNTDEPMGITLKMNNLNHCIVARIMHGGMIHRQGTLHVGDEIREINGISVANQTVEQLQKMLREMRGSITFKIVP [E22N] | -0.075 ± 0.071
VRLVQFQKNTDEPMGITLKMNDLNHCIVARIMHGGMIHRQGTLHVGDEIREINGISVANQTVEQLQKMLREMRGSITFKIVP [E22D] | 0.031 ± 0.036
VRLVQFQKNTDEPMGITLKMNTLNHCIVARIMHGGMIHRQGTLHVGDEIREINGISVANQTVEQLQKMLREMRGSITFKIVP [E22T] | -0.021 ± 0.038
VRLVQFQKNTDEPMGITLKMNLLNHCIVARIMHGGMIHRQGTLHVGDEIREINGISVANQTVEQLQKMLREMRGSITFKIVP [E22L] | -0.135 ± 0.032
VRLVQFQKNTDEPMGITLKMNEINHCIVARIMHGGMIHRQGTLHVGDEIREINGISVANQTVEQLQKMLREMRGSITFKIVP [L23I] | 0.054 ± 0.057
VRLVQFQKNTDEPMGITLKMNEYNHCIVARIMHGGMIHRQGTLHVGDEIREINGISVANQTVEQLQKMLREMRGSITFKIVP [L23Y] | 0.128 ± 0.043
VRLVQFQKNTDEPMGITLKMNEVNHCIVARIMHGGMIHRQGTLHVGDEIREINGISVANQTVEQLQKMLREMRGSITFKIVP [L23V] | 0.012 ± 0.025
VRLVQFQKNTDEPMGITLKMNEFNHCIVARIMHGGMIHRQGTLHVGDEIREINGISVANQTVEQLQKMLREMRGSITFKIVP [L23F] | -0.04 ± 0.049
VRLVQFQKNTDEPMGITLKMNETNHCIVARIMHGGMIHRQGTLHVGDEIREINGISVANQTVEQLQKMLREMRGSITFKIVP [L23T] | 0.044 ± 0.037
VRLVQFQKNTDEPMGITLKMNEHNHCIVARIMHGGMIHRQGTLHVGDEIREINGISVANQTVEQLQKMLREMRGSITFKIVP [L23H] | 0.028 ± 0.049
VRLVQFQKNTDEPMGITLKMNEQNHCIVARIMHGGMIHRQGTLHVGDEIREINGISVANQTVEQLQKMLREMRGSITFKIVP [L23Q] | 0.043 ± 0.035
VRLVQFQKNTDEPMGITLKMNEWNHCIVARIMHGGMIHRQGTLHVGDEIREINGISVANQTVEQLQKMLREMRGSITFKIVP [L23W] | 0.007 ± 0.026
VRLVQFQKNTDEPMGITLKMNEPNHCIVARIMHGGMIHRQGTLHVGDEIREINGISVANQTVEQLQKMLREMRGSITFKIVP [L23P] | -0.073 ± 0.036
VRLVQFQKNTDEPMGITLKMNEKNHCIVARIMHGGMIHRQGTLHVGDEIREINGISVANQTVEQLQKMLREMRGSITFKIVP [L23K] | 0.005 ± 0.035
VRLVQFQKNTDEPMGITLKMNESNHCIVARIMHGGMIHRQGTLHVGDEIREINGISVANQTVEQLQKMLREMRGSITFKIVP [L23S] | 0.028 ± 0.029

Variant | abundance fitness
VRLVQFQKNTDEPMGITLKMNENNHCIVARIMHGGMIHRQGTLHVGDEIREINGISVANQTVEQLQKMLREMRGSITFKIVP [L23N] | -0.038 ± 0.051
VRLVQFQKNTDEPMGITLKMNERNHCIVARIMHGGMIHRQGTLHVGDEIREINGISVANQTVEQLQKMLREMRGSITFKIVP [L23R] | 0.046 ± 0.022
VRLVQFQKNTDEPMGITLKMNEGNHCIVARIMHGGMIHRQGTLHVGDEIREINGISVANQTVEQLQKMLREMRGSITFKIVP [L23G] | 0.033 ± 0.021
VRLVQFQKNTDEPMGITLKMNECNHCIVARIMHGGMIHRQGTLHVGDEIREINGISVANQTVEQLQKMLREMRGSITFKIVP [L23C] | 0.013 ± 0.035
VRLVQFQKNTDEPMGITLKMNEENHCIVARIMHGGMIHRQGTLHVGDEIREINGISVANQTVEQLQKMLREMRGSITFKIVP [L23E] | 0.086 ± 0.028
VRLVQFQKNTDEPMGITLKMNEANHCIVARIMHGGMIHRQGTLHVGDEIREINGISVANQTVEQLQKMLREMRGSITFKIVP [L23A] | 0.039 ± 0.028
VRLVQFQKNTDEPMGITLKMNELLHCIVARIMHGGMIHRQGTLHVGDEIREINGISVANQTVEQLQKMLREMRGSITFKIVP [N24L] | -0.427 ± 0.026
VRLVQFQKNTDEPMGITLKMNELKHCIVARIMHGGMIHRQGTLHVGDEIREINGISVANQTVEQLQKMLREMRGSITFKIVP [N24K] | -0.032 ± 0.029
VRLVQFQKNTDEPMGITLKMNELHHCIVARIMHGGMIHRQGTLHVGDEIREINGISVANQTVEQLQKMLREMRGSITFKIVP [N24H] | -0.006 ± 0.037
VRLVQFQKNTDEPMGITLKMNELCHCIVARIMHGGMIHRQGTLHVGDEIREINGISVANQTVEQLQKMLREMRGSITFKIVP [N24C] | -0.159 ± 0.033
VRLVQFQKNTDEPMGITLKMNELIHCIVARIMHGGMIHRQGTLHVGDEIREINGISVANQTVEQLQKMLREMRGSITFKIVP [N24I] | -0.89 ± 0.11
VRLVQFQKNTDEPMGITLKMNELAHCIVARIMHGGMIHRQGTLHVGDEIREINGISVANQTVEQLQKMLREMRGSITFKIVP [N24A] | -0.14 ± 0.023
VRLVQFQKNTDEPMGITLKMNELEHCIVARIMHGGMIHRQGTLHVGDEIREINGISVANQTVEQLQKMLREMRGSITFKIVP [N24E] | -0.065 ± 0.026
VRLVQFQKNTDEPMGITLKMNELFHCIVARIMHGGMIHRQGTLHVGDEIREINGISVANQTVEQLQKMLREMRGSITFKIVP [N24F] | -0.252 ± 0.045
VRLVQFQKNTDEPMGITLKMNELGHCIVARIMHGGMIHRQGTLHVGDEIREINGISVANQTVEQLQKMLREMRGSITFKIVP [N24G] | 0.023 ± 0.019
VRLVQFQKNTDEPMGITLKMNELDHCIVARIMHGGMIHRQGTLHVGDEIREINGISVANQTVEQLQKMLREMRGSITFKIVP [N24D] | -0.024 ± 0.033
VRLVQFQKNTDEPMGITLKYNELNHCIVARIMHGGMIHRQGTLHVGDEIREINGISVANQTVEQLQKMLREMRGSITFKIVP [M20Y] | -0.01 ± 0.066
VRLVQFQKNTDEPMGITLKTNELNHCIVARIMHGGMIHRQGTLHVGDEIREINGISVANQTVEQLQKMLREMRGSITFKIVP [M20T] | -0.088 ± 0.04
VRLVQFQKNTDEPMGITLKSNELNHCIVARIMHGGMIHRQGTLHVGDEIREINGISVANQTVEQLQKMLREMRGSITFKIVP [M20S] | -0.154 ± 0.033
VRLVQFQKNTDEPMGITLKVNELNHCIVARIMHGGMIHRQGTLHVGDEIREINGISVANQTVEQLQKMLREMRGSITFKIVP [M20V] | -0.046 ± 0.03
VRLVQFQKNTDEPMGITLKWNELNHCIVARIMHGGMIHRQGTLHVGDEIREINGISVANQTVEQLQKMLREMRGSITFKIVP [M20W] | -0.044 ± 0.032
